The supplement of paper PMC6757056
± gives the standard deviation of the averaged measurements.

B1: library; a variant is named by its letters at N, in order (parent)
chain: GCUGUCACCGGAAUACCAGCAUCGUCUUGAUGCCCUUGGAAGUCCGGUCUGAUGAGUCCNNNNNGGACGAAACAGC

Key:
theophylline [1] = variants of: B1; assay: FACS-Seq fitted mean relative fluorescence mCherry/BFP without ligand (log10 relative fluorescence); higher = higher reporter protein expression; conditions: HEK293T, ligand present: no
Procedure, shortened: (§1)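 Fluorescence figures are normalized fitted normal means of sequenced bin counts. Enriched, lentivirally transduced HEK293T libraries with a ribozyme-switch mCherry reporter and EF1α-BFP were held 48 h with or without ligand, then sorted into 6 mCherry/BFP bins. PCR-amplified, barcoded genomic DNA from each bin was sequenced on MiSeq. Means of log10(mCherry/BFP) were scaled to five spiked-in control ribozymes.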

theophylline [2] = variants of: B1; assay: normalized RNA/DNA level with ligand (relative to sTRSVctl = 100) (log10 (% of sTRSVctl)); higher = less ribozyme self-cleavage, higher mRNA level; conditions: ligand concentration (+) RNA-Seq: 5 mM, HEK293T, reporter: mCherry (pCS4076), ligand present: yes
Procedure, shortened: (§2)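 Only sequences with at least 100 DNA reads were analyzed, from HEK293T cells transfected with 4 µg per 6-well well of ribozyme switch library plasmids 72 h before RNA extraction with EDTA. Any ligand was added 1 h before transfection. RNA level was defined as RNA over DNA reads, normalized to a spiked-in non-cleaving sequence or to the top sequences, then scaled and log-transformed. The top set was 25 sequences, and the scaling was ×100 followed by log10.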

theophylline [3] = variants of: B1; assay: normalized RNA/DNA level without ligand (relative to sTRSVctl = 100) (log10 (% of sTRSVctl)); higher = less ribozyme self-cleavage, higher mRNA level; conditions: HEK293T, reporter: mCherry (pCS4076), ligand present: no
Procedure, shortened: as §2

theophylline [4] = variants of: B1; assay: FACS-Seq fitted mean relative fluorescence mCherry/BFP with ligand (log10 relative fluorescence); ligand concentration (+) FACS-Seq: 1 mM; higher = higher reporter protein expression; conditions: HEK293T, ligand present: yes
Procedure, shortened: as §1

Row | Variant | FACS-Seq fitted mean (log10) (theophylline [1]) | normalized RNA/DNA level with ligand (log10) (theophylline [2]) | normalized RNA/DNA level without ligand (log10) (theophylline [3]) | FACS-Seq fitted mean (log10) (theophylline [4])
1 | GCUGUCACCGGAAUACCAGCAUCGUCUUGAUGCCCUUGGAAGUCCGGUCUGAUGAGUCCUCUAAGGACGAAACAGC [UCUAA] | 0.476 ± 0.055 | 2.03 ± 0.14 | 1.68 ± 0.095 | 0.588 ± 0.039
2 | GCUGUCACCGGAAUACCAGCAUCGUCUUGAUGCCCUUGGAAGUCCGGUCUGAUGAGUCCUCUAUGGACGAAACAGC [UCUAU] | 0.822 ± 0.091 | 2.051 ± 0.0076 | 1.867 ± 0.015 | 0.994 ± 0.05
3 | GCUGUCACCGGAAUACCAGCAUCGUCUUGAUGCCCUUGGAAGUCCGGUCUGAUGAGUCCACGUUGGACGAAACAGC [ACGUU] | 0.575 ± 0.11 | 2.05 ± 0.044 | 1.79 ± 0.042 | 0.657 ± 0.051
4 | GCUGUCACCGGAAUACCAGCAUCGUCUUGAUGCCCUUGGAAGUCCGGUCUGAUGAGUCCCCUAAGGACGAAACAGC [CCUAA] | 0.523 ± 0.071 | 1.98 ± 0.04 | 1.71 ± 0.13 | 0.725 ± 0.073
5 | GCUGUCACCGGAAUACCAGCAUCGUCUUGAUGCCCUUGGAAGUCCGGUCUGAUGAGUCCCCUACGGACGAAACAGC [CCUAC] | 0.87 ± 0.071 | 2.01 ± 0.038 | 1.99 ± 0.072 | 0.871 ± 0.066
6 | GCUGUCACCGGAAUACCAGCAUCGUCUUGAUGCCCUUGGAAGUCCGGUCUGAUGAGUCCCCUAUGGACGAAACAGC [CCUAU] | 0.969 ± 0.015 | 2.06 ± 0.025 | 1.867 ± 0.0061 | 1.05 ± 0.031
7 | GCUGUCACCGGAAUACCAGCAUCGUCUUGAUGCCCUUGGAAGUCCGGUCUGAUGAGUCCACUACGGACGAAACAGC [ACUAC] | 0.929 ± 0.041 | 1.98 ± 0.093 | 1.98 ± 0.084 | 0.984 ± 0.13
8 | GCUGUCACCGGAAUACCAGCAUCGUCUUGAUGCCCUUGGAAGUCCGGUCUGAUGAGUCCACUAAGGACGAAACAGC [ACUAA] | 0.266 ± 0.016 | 2.002 ± 0.01 | 1.65 ± 0.2 | 0.391 ± 0.0057
9 | GCUGUCACCGGAAUACCAGCAUCGUCUUGAUGCCCUUGGAAGUCCGGUCUGAUGAGUCCACUAUGGACGAAACAGC [ACUAU] | 0.418 ± 0.065 | 1.982 ± 0.019 | 1.84 ± 0.13 | 0.461 ± 0.041
10 | GCUGUCACCGGAAUACCAGCAUCGUCUUGAUGCCCUUGGAAGUCCGGUCUGAUGAGUCCACUAGGGACGAAACAGC [ACUAG] | 1.14 ± 0.18 | 2 ± 0.067 | 2.01 ± 0.043 | 1.08 ± 0.11
11 | GCUGUCACCGGAAUACCAGCAUCGUCUUGAUGCCCUUGGAAGUCCGGUCUGAUGAGUCCACUCCGGACGAAACAGC [ACUCC] | 0.767 ± 0.21 | 2 ± 0.068 | 1.96 ± 0.026 | 0.658 ± 0.024
12 | GCUGUCACCGGAAUACCAGCAUCGUCUUGAUGCCCUUGGAAGUCCGGUCUGAUGAGUCCACUCAGGACGAAACAGC [ACUCA] | 0.648 ± 0.038 | 1.97 ± 0.14 | 1.92 ± 0.076 | 0.659 ± 0.088
13 | GCUGUCACCGGAAUACCAGCAUCGUCUUGAUGCCCUUGGAAGUCCGGUCUGAUGAGUCCACUCUGGACGAAACAGC [ACUCU] | -0.437 ± 0.075 | 2.01 ± 0.052 | 1.93 ± 0.075 | -0.125 ± 0.13
14 | GCUGUCACCGGAAUACCAGCAUCGUCUUGAUGCCCUUGGAAGUCCGGUCUGAUGAGUCCACUCGGGACGAAACAGC [ACUCG] | 1.06 ± 0.14 | 1.95 ± 0.2 | 1.89 ± 0.11 | 1.17 ± 0.035
15 | GCUGUCACCGGAAUACCAGCAUCGUCUUGAUGCCCUUGGAAGUCCGGUCUGAUGAGUCCUCUCCGGACGAAACAGC [UCUCC] | 0.732 ± 0.037 | 1.93 ± 0.04 | 1.95 ± 0.023 | 0.7862 ± 0.0054
16 | GCUGUCACCGGAAUACCAGCAUCGUCUUGAUGCCCUUGGAAGUCCGGUCUGAUGAGUCCCCUCCGGACGAAACAGC [CCUCC] | 0.993 ± 0.035 | 2.092 ± 0.0026 | 2.0411 ± 0.0014 | 0.89 ± 0.046
17 | GCUGUCACCGGAAUACCAGCAUCGUCUUGAUGCCCUUGGAAGUCCGGUCUGAUGAGUCCCCUCUGGACGAAACAGC [CCUCU] | 0.198 ± 0.07 | 1.93 ± 0.039 | 1.87 ± 0.036 | 0.0585 ± 0.1
18 | GCUGUCACCGGAAUACCAGCAUCGUCUUGAUGCCCUUGGAAGUCCGGUCUGAUGAGUCCACUGAGGACGAAACAGC [ACUGA] | 0.423 ± 0.012 | 1.96 ± 0.19 | 1.68 ± 0.18 | 0.613 ± 0.023
